{"source": "patent US20100254972A1", "key": {"[1]": {"biological_target": "human TNFR1 (soluble recombinant protein) (human) (UniProt P19438)", "sequence (P19438 41-201 limits assumed)": "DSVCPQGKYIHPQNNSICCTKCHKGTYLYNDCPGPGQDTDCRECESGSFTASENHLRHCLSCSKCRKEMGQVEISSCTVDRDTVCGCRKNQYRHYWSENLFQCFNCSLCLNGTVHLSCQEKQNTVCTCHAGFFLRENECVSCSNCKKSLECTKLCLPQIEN", "test": "phage ELISA, plate coated with 1 nM TNFR1, anti-M13-HRP; trypsin 0 µg/ml; phage input 1.13E+10"}, "[2]": {"biological_target": "human TNFR1 (soluble recombinant protein) (human) (UniProt P19438)", "test": "phage ELISA, plate coated with 1 nM TNFR1, anti-M13-HRP; trypsin 0 µg/ml; phage input 1.41E+09"}, "[3]": {"biological_target": "human TNFR1 (soluble recombinant protein) (human) (UniProt P19438)", "test": "phage ELISA, plate coated with 1 nM TNFR1, anti-M13-HRP; trypsin 0 µg/ml; phage input 2.26E+10"}, "[4]": {"biological_target": "human TNFR1 (soluble recombinant protein) (human) (UniProt P19438)", "test": "phage ELISA, plate coated with 1 nM TNFR1, anti-M13-HRP; trypsin 0 µg/ml; phage input 2.82E+09"}, "[5]": {"biological_target": "human TNFR1 (soluble recombinant protein) (human) (UniProt P19438)", "test": "phage ELISA, plate coated with 1 nM TNFR1, anti-M13-HRP; trypsin 0 µg/ml; phage input 3.52E+08"}, "[6]": {"biological_target": "human TNFR1 (soluble recombinant protein) (human) (UniProt P19438)", "test": "phage ELISA, plate coated with 1 nM TNFR1, anti-M13-HRP; trypsin 0 µg/ml; phage input 4.51E+10"}, "[7]": {"biological_target": "human TNFR1 (soluble recombinant protein) (human) (UniProt P19438)", "test": "phage ELISA, plate coated with 1 nM TNFR1, anti-M13-HRP; trypsin 0 µg/ml; phage input 5.64E+09"}, "[8]": {"biological_target": "human TNFR1 (soluble recombinant protein) (human) (UniProt P19438)", "test": "phage ELISA, plate coated with 1 nM TNFR1, anti-M13-HRP; trypsin 0 µg/ml; phage input 7.05E+08"}, "[9]": {"biological_target": "human TNFR1 (soluble recombinant protein) (human) (UniProt P19438)", "test": "phage ELISA, plate coated with 1 nM TNFR1, anti-M13-HRP; trypsin 1 mg/ml; phage input 1.13E+10"}, "[10]": {"biological_target": "human TNFR1 (soluble recombinant protein) (human) (UniProt P19438)", "test": "phage ELISA, plate coated with 1 nM TNFR1, anti-M13-HRP; trypsin 1 mg/ml; phage input 1.41E+09"}, "[11]": {"biological_target": "human TNFR1 (soluble recombinant protein) (human) (UniProt P19438)", "test": "phage ELISA, plate coated with 1 nM TNFR1, anti-M13-HRP; trypsin 1 mg/ml; phage input 2.26E+10"}, "[12]": {"biological_target": "human TNFR1 (soluble recombinant protein) (human) (UniProt P19438)", "test": "phage ELISA, plate coated with 1 nM TNFR1, anti-M13-HRP; trypsin 1 mg/ml; phage input 2.82E+09"}, "[13]": {"biological_target": "human TNFR1 (soluble recombinant protein) (human) (UniProt P19438)", "test": "phage ELISA, plate coated with 1 nM TNFR1, anti-M13-HRP; trypsin 1 mg/ml; phage input 3.52E+08"}, "[14]": {"biological_target": "human TNFR1 (soluble recombinant protein) (human) (UniProt P19438)", "test": "phage ELISA, plate coated with 1 nM TNFR1, anti-M13-HRP; trypsin 1 mg/ml; phage input 5.64E+09"}, "[15]": {"biological_target": "human TNFR1 (soluble recombinant protein) (human) (UniProt P19438)", "test": "phage ELISA, plate coated with 1 nM TNFR1, anti-M13-HRP; trypsin 1 mg/ml; phage input 7.05E+08"}, "[16]": {"biological_target": "human TNFR1 (soluble recombinant protein) (human) (UniProt P19438)", "test": "phage ELISA, plate coated with 1 nM TNFR1, anti-M13-HRP; trypsin 10 µg/ml; phage input 1.13E+10"}, "[17]": {"biological_target": "human TNFR1 (soluble recombinant protein) (human) (UniProt P19438)", "test": "phage ELISA, plate coated with 1 nM TNFR1, anti-M13-HRP; trypsin 10 µg/ml; phage input 1.41E+09"}, "[18]": {"biological_target": "human TNFR1 (soluble recombinant protein) (human) (UniProt P19438)", "test": "phage ELISA, plate coated with 1 nM TNFR1, anti-M13-HRP; trypsin 10 µg/ml; phage input 2.26E+10"}, "[19]": {"biological_target": "human TNFR1 (soluble recombinant protein) (human) (UniProt P19438)", "test": "phage ELISA, plate coated with 1 nM TNFR1, anti-M13-HRP; trypsin 10 µg/ml; phage input 2.82E+09"}, "[20]": {"biological_target": "human TNFR1 (soluble recombinant protein) (human) (UniProt P19438)", "test": "phage ELISA, plate coated with 1 nM TNFR1, anti-M13-HRP; trypsin 10 µg/ml; phage input 3.52E+08"}, "[21]": {"biological_target": "human TNFR1 (soluble recombinant protein) (human) (UniProt P19438)", "test": "phage ELISA, plate coated with 1 nM TNFR1, anti-M13-HRP; trypsin 10 µg/ml; phage input 4.51E+10"}, "[22]": {"biological_target": "human TNFR1 (soluble recombinant protein) (human) (UniProt P19438)", "test": "phage ELISA, plate coated with 1 nM TNFR1, anti-M13-HRP; trypsin 10 µg/ml; phage input 5.64E+09"}, "[23]": {"biological_target": "human TNFR1 (soluble recombinant protein) (human) (UniProt P19438)", "test": "phage ELISA, plate coated with 1 nM TNFR1, anti-M13-HRP; trypsin 10 µg/ml; phage input 7.05E+08"}, "[24]": {"biological_target": "human TNFR1 (soluble recombinant protein) (human) (UniProt P19438)", "test": "phage ELISA, plate coated with 1 nM TNFR1, anti-M13-HRP; trypsin 100 µg/ml; phage input 1.13E+10"}, "[25]": {"biological_target": "human TNFR1 (soluble recombinant protein) (human) (UniProt P19438)", "test": "phage ELISA, plate coated with 1 nM TNFR1, anti-M13-HRP; trypsin 100 µg/ml; phage input 1.41E+09"}, "[26]": {"biological_target": "human TNFR1 (soluble recombinant protein) (human) (UniProt P19438)", "test": "phage ELISA, plate coated with 1 nM TNFR1, anti-M13-HRP; trypsin 100 µg/ml; phage input 2.26E+10"}, "[27]": {"biological_target": "human TNFR1 (soluble recombinant protein) (human) (UniProt P19438)", "test": "phage ELISA, plate coated with 1 nM TNFR1, anti-M13-HRP; trypsin 100 µg/ml; phage input 2.82E+09"}, "[28]": {"biological_target": "human TNFR1 (soluble recombinant protein) (human) (UniProt P19438)", "test": "phage ELISA, plate coated with 1 nM TNFR1, anti-M13-HRP; trypsin 100 µg/ml; phage input 3.52E+08"}, "[29]": {"biological_target": "human TNFR1 (soluble recombinant protein) (human) (UniProt P19438)", "test": "phage ELISA, plate coated with 1 nM TNFR1, anti-M13-HRP; trypsin 100 µg/ml; phage input 4.51E+10"}, "[30]": {"biological_target": "human TNFR1 (soluble recombinant protein) (human) (UniProt P19438)", "test": "phage ELISA, plate coated with 1 nM TNFR1, anti-M13-HRP; trypsin 100 µg/ml; phage input 5.64E+09"}, "[31]": {"biological_target": "human TNFR1 (soluble recombinant protein) (human) (UniProt P19438)", "test": "phage ELISA, plate coated with 1 nM TNFR1, anti-M13-HRP; trypsin 100 µg/ml; phage input 7.05E+08"}, "[32]": {"biological_target": "human TNFR1 (soluble recombinant protein) (human) (UniProt P19438)", "test": "phage ELISA, plate coated with 1 nM TNFR1, anti-M13-HRP; phage treated 1 h RT with trypsin 1 mg/ml; phage input 4.51E+10"}}}
{"substance": "DOM1h-131", "values": [{"measurement": "phage ELISA signal", "setting": "[1]", "result": 0.949}, {"measurement": "phage ELISA signal", "setting": "[2]", "result": 0.85}, {"measurement": "phage ELISA signal", "setting": "[3]", "result": 0.944}, {"measurement": "phage ELISA signal", "setting": "[4]", "result": 0.946}, {"measurement": "phage ELISA signal", "setting": "[5]", "result": 0.577}, {"measurement": "phage ELISA signal", "setting": "[6]", "result": 0.916}, {"measurement": "phage ELISA signal", "setting": "[7]", "result": 0.962}, {"measurement": "phage ELISA signal", "setting": "[8]", "result": 0.705}, {"measurement": "phage ELISA signal", "setting": "[9]", "result": 0.183}, {"measurement": "phage ELISA signal", "setting": "[10]", "result": 0.089}, {"measurement": "phage ELISA signal", "setting": "[11]", "result": 0.229}, {"measurement": "phage ELISA signal", "setting": "[12]", "result": 0.114}, {"measurement": "phage ELISA signal", "setting": "[13]", "result": 0.08}, {"measurement": "phage ELISA signal", "setting": "[14]", "result": 0.133}, {"measurement": "phage ELISA signal", "setting": "[15]", "result": 0.084}, {"measurement": "phage ELISA signal", "setting": "[16]", "result": 0.86}, {"measurement": "phage ELISA signal", "setting": "[17]", "result": 0.409}, {"measurement": "phage ELISA signal", "setting": "[18]", "result": 0.802}, {"measurement": "phage ELISA signal", "setting": "[19]", "result": 0.573}, {"measurement": "phage ELISA signal", "setting": "[20]", "result": 0.213}, {"measurement": "phage ELISA signal", "setting": "[21]", "result": 0.784}, {"measurement": "phage ELISA signal", "setting": "[22]", "result": 0.695}, {"measurement": "phage ELISA signal", "setting": "[23]", "result": 0.286}, {"measurement": "phage ELISA signal", "setting": "[24]", "result": 0.284}, {"measurement": "phage ELISA signal", "setting": "[25]", "result": 0.115}, {"measurement": "phage ELISA signal", "setting": "[26]", "result": 0.377}, {"measurement": "phage ELISA signal", "setting": "[27]", "result": 0.141}, {"measurement": "phage ELISA signal", "setting": "[28]", "result": 0.084}, {"measurement": "phage ELISA signal", "setting": "[29]", "result": 0.418}, {"measurement": "phage ELISA signal", "setting": "[30]", "result": 0.196}, {"measurement": "phage ELISA signal", "setting": "[31]", "result": 0.084}, {"measurement": "phage ELISA signal", "setting": "[32]", "result": 0.284}]}
